How the values were obtained:
human EGFR = target: T1, human EGFR (human, UniProt P00533 25-645, limits assumed); assay: BLI (Octet), binder on AHC sensor, 200 nM human EGFR, 1:1 fit; molecule has two EGFR-binding domains, same value printed under D1 and D4
T1 construct: Soluble antigen in Octet; construct not described

human CD3 = target: T2, human CD3 (human, UniProt P07766 23-126; P04234 22-105); assay: BLI (Octet), binder on AHC sensor, 100 nM human CD3, 1:1 fit
T2 construct: also called His-tagged human CD3; human CD3 (Acro CDD-H52W1)

human HER3 = target: T3, human HER3 (human, UniProt P21860 20-643); assay: BLI (Octet), binder on AHC sensor, 200 nM human HER3, 1:1 fit; molecule has two HER3-binding domains, same value printed under D2 and D5
T3 construct: Soluble antigen in Octet; bought; also called human HER3 (Acro ER3-H5223)

B1: SI-75P8 (other)
chain 1: EVQLQESGGGLVQAGDSLSLSCLVSGRSFNSYTMGWFRQAPGKEREFVAAILWSGPTTYYADSVKGRFTISRDNAKNTVYLQMNSLKPEDTAVYYCAAALGVLVLAPGNVYSYWGQGTQVTVSSGGGGSGGGGSQVQLQESGGRLVQPGEPLSLTCKTSGIDLSSNAIGWVRQAPGKGLEWIGVIFGSGNTYYASWAKGRFTISRSTSTVYLKMNSLRSEDTAIYYCARGGYSSDIWGQGTLVTVSSASTKGPSVFPLAPSSKSTSGGTAALGCLVKDYFPEPVTVSWNSGALTSGVHTFPAVLQSSGLYSLSSVVTVPSSSLGTQTYICNVNHKPSNTKVDKRVEPKSCDKTHTCPPCPAPEAAGGPSVFLFPPKPKDTLMISRTPEVTCVVVDVSHEDPEVKFNWYVDGVEVHNAKTKPREEQYNSTYRVVSVLTVLHQDWLNGKEYKCAVSNKALPAPIEKTISKAKGQPREPQVYTLPPSRDELTKNQVSLSCAVKGFYPSDIAVEWESNGQPENNYKTTPPVLDSDGSFFLVSKLTVDKSRWQQGNVFSCSVMHEALHNHYTQKSLSLSPGGGGGSGGGGSQVQLQQSGPGLVKPSETLSITCTVSGFSLTNYGVHWIRQAPGKGLEWLGVIWSGGNTDYNTPFTSRFTITKDNSKNQVYFKLRSVRADDTAIYYCARALTYYDYEFAYWGQGTLVTVSSGGGGSGGGGSGGGGSGGGGSEIVLTQSPSTLSVSPGERATFSCRASQSIGTNIHWYQQKPGKPPRLLIKYASESISGIPDRFSGSGSGTEFTLTISSVQSEDFAVYYCQQNNNWPTTFGPGTKLTVL
chain 2: QVQLVQSGGGLVQAGGSLSLSCAFSGRTFSMYTMGWFRQAPGKEREFVAANRGRGLSPDIADSVNGRFTISRDNAKNTLYLQMDSLKPEDTAVYYCAADLQYGSSWPQRSSAEYDYWGQGTTVTVSSGGGGSGGGGSDPQLTQSPSSLSATVGQRVTINCQSSQSVAKNNNLAWFQQKPGKPPKLLIYSASTLAAGVPSRFSGSGSGTQFTLTITRVQSEDFATYYCSARDSGNIQSFGGGTRVEIKRTVAAPSVFIFPPSDEQLKSGTASVVCLLNNFYPREAKVQWKVDNALQSGNSQESVTEQDSKDSTYSLSSTLTLSKADYEKHKVYACEVTHQGLSSPVTKSFNRGECGGDKTHTCPPCPAPEAAGGPSVFLFPPKPKDTLMISRTPEVTCVVVDVSHEDPEVKFNWYVDGVEVHNAKTKPREEQYNSTYRVVSVLTVLHQDWLNGKEYKCAVSNKALPAPIEKTISKAKGQPREPQVYTLPPSRDELTKNQVSLWCLVKGFYPSDIAVEWESNGQPENNYKTTPPVLDSDGSFFLYSKLTVDKSRWQQGNVFSCSVMHEALHNRFTQKSLSLSPGGGGGSGGGGSQVQLQESGGGLVKPGGSLSLSCAASGFTFSSYWMSWVRQAPGKGLEWVANINRDGSASYYVDSVKGRFTISRDDAKNSLYLQMNSLRAEDTAVYYCARDRGVGYFDLWGRGTLVTVSSGGGGSGGGGSGGGGSQSALTQPASVSGSPGQSITISCTGTSSDVGGYNFVSWYQQHPGKAPKLMIYDVSDRPSGVSDRFSGSKSGNTASLIISGLQADDEADYYCSSYGSSSTHVIFGGGTKVTVL
notes: D1 αEGFR VHH, D2 αHER3 VHH, D3 αCD3* (Fab), D4 αEGFR scFv, D5 αHER3 scFv
B1 gave a Kd (human EGFR) of 6.22 nM, a Kd (human CD3) of 44.1 nM and a Kd (human HER3) of 0.786 nM.
